The target of experiment [1] is SHP-2 C-terminal SH2 domain (UniProt Q06124). The experiment is described as follows: SPR, 37°C. Conditions: reference: unphosphorylated peptide; sites Y211,Y237. On the technique in general: SPR reads the build-up and loss of mass on a sensor chip optically.
In experiment [2] the target is SHP-2 tandem (N+C) SH2 domains (UniProt Q06124). Briefly: SPR, 37°C.
Experiment [3] concerns the target SHP-1 tandem (N+C) SH2 domains (UniProt P29350). Briefly: SPR, 37°C.
Experiment [4] has as its target SHP-2 (UniProt Q06124). Briefly: biotin-peptide pull-down from platelet lysate. Conditions: reference: unphosphorylated peptide; sites Y211,Y237.
The target of experiment [5] is Syk (UniProt P43405). Briefly: biotin-peptide pull-down from platelet lysate. Conditions: reference: unphosphorylated peptide; sites Y211,Y237.
Experiment [6] deals with SHP-2 tandem (N+C) SH2 domains (UniProt Q06124). The experiment is described as follows: SPR kinetics, 37°C. Conditions: reference: unphosphorylated peptide.
Experiment [7] concerns the target SHP-1 tandem (N+C) SH2 domains (UniProt P29350). The experiment is described as follows: SPR kinetics, 37°C. Conditions: reference: unphosphorylated peptide; sites Y211,Y237.
Experiment [8] concerns the target Syk tandem (N+C) SH2 domains (UniProt P43405). The experiment is described as follows: direct peptide pull-down, Coomassie gel. Conditions: reference: unphosphorylated peptide; sites Y211,Y237.
In experiment [9] the target is SHP-2 N-terminal SH2 domain (UniProt Q06124). The experiment is described as follows: direct peptide pull-down, Coomassie gel. As to conditions: reference: unphosphorylated peptide; sites Y211,Y237.
The target in experiment [10] is SHP-2 C-terminal SH2 domain (UniProt Q06124). The experiment is described as follows: direct peptide pull-down, Coomassie gel. As to conditions: reference: unphosphorylated peptide; sites Y211,Y237.
Experiment [11] deals with SHP-2 tandem (N+C) SH2 domains (UniProt Q06124). The experiment is described as follows: direct peptide pull-down, Coomassie gel.
Experiment [12] concerns the target SHP-1 tandem (N+C) SH2 domains (UniProt P29350). The experiment is described as follows: direct peptide pull-down, Coomassie gel.
Experiment [13] deals with Syk SH2 domains (UniProt P43405). Briefly: SPR. Conditions: reference: unphosphorylated peptide; sites Y211,Y237.
Experiment [14] has as its target G6B-b dual phosphopeptide (biotinylated 60-mer, amino acids 182 to 241, pY211 and pY237) (human) (UniProt O95866). The experiment is described as follows: pull-down; direct pull down assay: peptide on Streptactin beads incubated with equimolar purified SH2 domains (100 pM [sic] each for the tandem SH2 domains), 250 µl PBS, 30 minutes, room temperature; bound and unbound fractions on Coomassie-stained gels.

In experiment [15] the target is G6B-b pY211 phosphopeptide (biotinylated 60-mer, amino acids 182 to 241, ITIM phosphorylated) (human) (UniProt O95866). The experiment is described as follows: SPR; BIAcore 3000, biotinylated peptides (50 RU) on streptavidin-coated CM5 chip, single SH2 domains flowed at 10 µl/min, HBS buffer pH 7.4, 0.15 M NaCl, 37°C; KD from equilibrium binding, single site fitting.

For experiment [16], the target named is G6B-b pY237 phosphopeptide (biotinylated 60-mer, amino acids 182 to 241, ITSM phosphorylated) (human) (UniProt O95866). The description is as above.
Experiment [17] deals with G6B-b dual phosphopeptide (biotinylated 60-mer, amino acids 182 to 241, pY211 and pY237) (human) (UniProt O95866). Described as above.
Experiment [18] concerns the target G6B-b pY211 phosphopeptide (biotinylated 60-mer, amino acids 182 to 241, ITIM phosphorylated) (human) (UniProt O95866). Briefly: pull-down; direct pull down assay: peptide on Streptactin beads incubated with equimolar purified SH2 domains (100 pM [sic] each for the tandem SH2 domains), 250 µl PBS, 30 minutes, room temperature; bound and unbound fractions on Coomassie-stained gels.

For experiment [19], the target named is G6B-b pY237 phosphopeptide (biotinylated 60-mer, amino acids 182 to 241, ITSM phosphorylated) (human) (UniProt O95866). Described as above.
Experiment [20] deals with G6B-b dual phosphopeptide (biotinylated 60-mer, amino acids 182 to 241, pY211 and pY237) (human) (UniProt O95866). The experiment is described as follows: SPR; purified SH2 domains of Syk, PLCγ2, Src and PI3K p85 over immobilised G6B-b peptides; how the KD was obtained is not told.
[21] abbreviates: reference: pY211 peptide, sites Y237.
The mark [22] stands for this setting: reference: pY237 peptide, sites Y211.
The mark [23] stands for this setting: reference: unphosphorylated peptide, sites Y211,Y237.

Take “G6B-b 182-241 (from UniProt O95866) dual pY211/pY237 peptide”: the “binding against the reference” value in [1] is given as “stronger”; in experiment [2] (setting [21]), “stronger”; in experiment [2] (setting [22]), “stronger”; in experiment [3] (setting [21]) it was “stronger”; in experiment [3] (setting [22]), “stronger”; in experiment [4], “gained”. The “binding against the reference” value in [5], in [9] and in [10] was “stronger” each time. Besides, the KD in experiment [6] (sites Y211,Y237) is 0.48 nM; in experiment [7], 35.3 nM; in experiment [13] it was “stronger”. For the same substance, the “other: share of SH2 protein bound” value in [8] was “stronger”; in [11] (setting [21]), “stronger; reference ∼50”; in experiment [11] (setting [22]) it was “stronger; reference ∼25”; in experiment [11] (setting [23]), “stronger”; in [12] (setting [21]) it was “gained; reference little or no association”; in experiment [12] (setting [22]) it was “gained; reference little or no association”. Further, the “other: share of SH2 protein bound” value in [12] (setting [23]) is listed as “stronger”.

“G6B-b 182-241 (from UniProt O95866) pY211 peptide”: in experiment [6] (sites Y211), the “binding against the reference” value is on record as “stronger”. Moreover, the “other: share of SH2 protein bound” value in experiment [11] (reference: unphosphorylated peptide, sites Y211) was “stronger”.

Regarding “G6B-b 182-241 (from UniProt O95866) pY237 peptide”, the “binding against the reference” value in experiment [6] (sites Y237) is recorded as “stronger”. Besides, the “other: share of SH2 protein bound” value in experiment [11] (reference: unphosphorylated peptide, sites Y237) is “stronger”.

As for “PLCγ2 N+C tandem SH2 domains (domain or fragment)”, in [14], the percent bound is 40%.

In the case of “SHP-1 (N+C)SH2 domains (maltose binding protein-tag) (domain or fragment)”, the percent bound in experiment [14] is 30%.

Consider “SHP-2 (N)SH2 (His-tag) (domain or fragment)”, for which the results for the Kd in [15], in [16] and in experiment [17] were 110 nM, 10000 nM and 130 nM, respectively.

In the case of “SHP-2 (N+C)SH2 domains (His-tag) (domain or fragment)”, the percent bound in [18] was determined as 50%; in [19], 25%; in [14], 70%.

“Syk tandem (N+C) SH2 domains (domain or fragment)” gave a percent bound in experiment [14] of 20%. For the same substance, the Kd in experiment [20] was determined as 25000 nM.

The term KD denotes the concentration at which binding is half-saturated. Lower therefore signals higher affinity. Usually Kd stands for the equilibrium constant for the complex coming apart. Higher therefore signals lower affinity.

Source of the values: PMC3501490, “An Investigation of Hierachical Protein Recruitment to the Inhibitory Platelet Receptor, G6B-b” (PLoS ONE, 2012).
